# Laboratory results reported in patent US20260258127A1 (YING MAI DE MEDICAL TECHNOLOGY GUANGDONG, published 2026).
# B1: CD3 antibody VH-Y61C PEG40K conjugate after activation (Table 3) (antibody, V domains shown)
# VH: EVQLVESGGGLVQPGGSLRLSCAASGFTFSTYAMNWVRQAPGKGLEWVGRIRSKYNNYATCYADSVKDRFTISRDDSKNSLYLQMNSLKTEDTAVYYCARHGNFGNSYVSWFAYWGQGTLVTVSS
# VL: QTVVTQEPSLTVSPGGTVTLTCRSSTGAVTTSNYANWVQQKPGQAPRGLIGGTNKRAPGVPARFSGSLLGDKAALTLLGAQPEDEAEYFCALWYSNLWVFGGGTKLTVL
# modifications: Cys 61: PEG40K blocker released by activation (cleavage of the linker peptide); what remains on Cys 61 is not stated
# B2: CD3 antibody VH-Y61C PEG20K conjugate after activation (Table 3) (antibody, V domains shown)
# VH: EVQLVESGGGLVQPGGSLRLSCAASGFTFSTYAMNWVRQAPGKGLEWVGRIRSKYNNYATCYADSVKDRFTISRDDSKNSLYLQMNSLKTEDTAVYYCARHGNFGNSYVSWFAYWGQGTLVTVSS
# VL: QTVVTQEPSLTVSPGGTVTLTCRSSTGAVTTSNYANWVQQKPGQAPRGLIGGTNKRAPGVPARFSGSLLGDKAALTLLGAQPEDEAEYFCALWYSNLWVFGGGTKLTVL
# modifications: Cys 61: PEG20K blocker released by activation (cleavage of the linker peptide); what remains on Cys 61 is not stated
# B3: CD3 antibody VH-Y61C PEG10K conjugate after activation (Table 3) (antibody, V domains shown)
# VH: EVQLVESGGGLVQPGGSLRLSCAASGFTFSTYAMNWVRQAPGKGLEWVGRIRSKYNNYATCYADSVKDRFTISRDDSKNSLYLQMNSLKTEDTAVYYCARHGNFGNSYVSWFAYWGQGTLVTVSS
# VL: QTVVTQEPSLTVSPGGTVTLTCRSSTGAVTTSNYANWVQQKPGQAPRGLIGGTNKRAPGVPARFSGSLLGDKAALTLLGAQPEDEAEYFCALWYSNLWVFGGGTKLTVL
# modifications: Cys 61: PEG10K blocker released by activation (cleavage of the linker peptide); what remains on Cys 61 is not stated
# B4: CD3 antibody VH-Y61C PEG5K conjugate after activation (Table 3) (antibody, V domains shown)
# VH: EVQLVESGGGLVQPGGSLRLSCAASGFTFSTYAMNWVRQAPGKGLEWVGRIRSKYNNYATCYADSVKDRFTISRDDSKNSLYLQMNSLKTEDTAVYYCARHGNFGNSYVSWFAYWGQGTLVTVSS
# VL: QTVVTQEPSLTVSPGGTVTLTCRSSTGAVTTSNYANWVQQKPGQAPRGLIGGTNKRAPGVPARFSGSLLGDKAALTLLGAQPEDEAEYFCALWYSNLWVFGGGTKLTVL
# modifications: Cys 61: PEG5K blocker released by activation (cleavage of the linker peptide); what remains on Cys 61 is not stated
# B5: CD3 antibody VH-Y61C conjugated through the cleavable linker peptide with R1 = PEG10K (Table 3) (antibody, V domains shown)
# VH: EVQLVESGGGLVQPGGSLRLSCAASGFTFSTYAMNWVRQAPGKGLEWVGRIRSKYNNYATCYADSVKDRFTISRDDSKNSLYLQMNSLKTEDTAVYYCARHGNFGNSYVSWFAYWGQGTLVTVSS
# VL: QTVVTQEPSLTVSPGGTVTLTCRSSTGAVTTSNYANWVQQKPGQAPRGLIGGTNKRAPGVPARFSGSLLGDKAALTLLGAQPEDEAEYFCALWYSNLWVFGGGTKLTVL
# modifications: Cys 61 conjugated with cleavable linker peptide P carrying blocker PEG10K
# notes: also called VH-61 Y61C PEG10K
# B6: CD3 antibody VH-Y61C conjugated through the cleavable linker peptide with R1 = PEG40K (Table 3) (antibody, V domains shown)
# VH: EVQLVESGGGLVQPGGSLRLSCAASGFTFSTYAMNWVRQAPGKGLEWVGRIRSKYNNYATCYADSVKDRFTISRDDSKNSLYLQMNSLKTEDTAVYYCARHGNFGNSYVSWFAYWGQGTLVTVSS
# VL: QTVVTQEPSLTVSPGGTVTLTCRSSTGAVTTSNYANWVQQKPGQAPRGLIGGTNKRAPGVPARFSGSLLGDKAALTLLGAQPEDEAEYFCALWYSNLWVFGGGTKLTVL
# modifications: Cys 61 conjugated with cleavable linker peptide P carrying blocker PEG40K
# notes: also called VH-61 Y61C PEG40K
# B7: CD3 antibody VH-Y61C conjugated through the cleavable linker peptide with R1 = PEG5K (Table 3) (antibody, V domains shown)
# VH: EVQLVESGGGLVQPGGSLRLSCAASGFTFSTYAMNWVRQAPGKGLEWVGRIRSKYNNYATCYADSVKDRFTISRDDSKNSLYLQMNSLKTEDTAVYYCARHGNFGNSYVSWFAYWGQGTLVTVSS
# VL: QTVVTQEPSLTVSPGGTVTLTCRSSTGAVTTSNYANWVQQKPGQAPRGLIGGTNKRAPGVPARFSGSLLGDKAALTLLGAQPEDEAEYFCALWYSNLWVFGGGTKLTVL
# modifications: Cys 61 conjugated with cleavable linker peptide P carrying blocker PEG5K
# notes: also called VH-61 Y61C PEG5K
# B8: CD3 antibody VH-Y61C conjugated through the cleavable linker peptide with R1 = PEG20K (Table 3) (antibody, V domains shown)
# VH: EVQLVESGGGLVQPGGSLRLSCAASGFTFSTYAMNWVRQAPGKGLEWVGRIRSKYNNYATCYADSVKDRFTISRDDSKNSLYLQMNSLKTEDTAVYYCARHGNFGNSYVSWFAYWGQGTLVTVSS
# VL: QTVVTQEPSLTVSPGGTVTLTCRSSTGAVTTSNYANWVQQKPGQAPRGLIGGTNKRAPGVPARFSGSLLGDKAALTLLGAQPEDEAEYFCALWYSNLWVFGGGTKLTVL
# modifications: Cys 61 conjugated with cleavable linker peptide P carrying blocker PEG20K
# notes: may be the same molecule as m19 (same value 400) or as CD3-Her2+20k; also called VH-61 Y61C PEG20K
# B9: anti-CD3 antibody mutant VH-S53C conjugated with Molecule I (+20K) (antibody, V domains shown)
# VH: EVQLVESGGGLVQPGGSLRLSCAASGFTFSTYAMNWVRQAPGKGLEWVGRIRCKYNNYATYYADSVKDRFTISRDDSKNSLYLQMNSLKTEDTAVYYCARHGNFGNSYVSWFAYWGQGTLVTVSS
# VL: QTVVTQEPSLTVSPGGTVTLTCRSSTGAVTTSNYANWVQQKPGQAPRGLIGGTNKRAPGVPARFSGSLLGDKAALTLLGAQPEDEAEYFCALWYSNLWVFGGGTKLTVL
# modifications: Cys 53 conjugated with Molecule I (+20K)
# notes: also called VH-53 S53 (+20K)
# B10: anti-CD3 antibody mutant VH-Y61C conjugated with Molecule I (+20K) (antibody, V domains shown)
# VH: EVQLVESGGGLVQPGGSLRLSCAASGFTFSTYAMNWVRQAPGKGLEWVGRIRSKYNNYATCYADSVKDRFTISRDDSKNSLYLQMNSLKTEDTAVYYCARHGNFGNSYVSWFAYWGQGTLVTVSS
# VL: QTVVTQEPSLTVSPGGTVTLTCRSSTGAVTTSNYANWVQQKPGQAPRGLIGGTNKRAPGVPARFSGSLLGDKAALTLLGAQPEDEAEYFCALWYSNLWVFGGGTKLTVL
# modifications: Cys 61 conjugated with Molecule I (+20K)
# notes: also called VH-61 Y61 (+20K)
# B11: anti-CD3 antibody mutant VL-Y94C conjugated with Molecule I (+20K) (antibody, V domains shown)
# VH: EVQLVESGGGLVQPGGSLRLSCAASGFTFSTYAMNWVRQAPGKGLEWVGRIRSKYNNYATYYADSVKDRFTISRDDSKNSLYLQMNSLKTEDTAVYYCARHGNFGNSYVSWFAYWGQGTLVTVSS
# VL: QTVVTQEPSLTVSPGGTVTLTCRSSTGAVTTSNYANWVQQKPGQAPRGLIGGTNKRAPGVPARFSGSLLGDKAALTLLGAQPEDEAEYFCALWCSNLWVFGGGTKLTVL
# modifications: Cys 94 conjugated with Molecule I (+20K)
# notes: also called VL-94 Y94 (+20K)
# B12: anti-CD3 antibody mutant VL-Y34C conjugated with Molecule I (+20K) (antibody, V domains shown)
# VH: EVQLVESGGGLVQPGGSLRLSCAASGFTFSTYAMNWVRQAPGKGLEWVGRIRSKYNNYATYYADSVKDRFTISRDDSKNSLYLQMNSLKTEDTAVYYCARHGNFGNSYVSWFAYWGQGTLVTVSS
# VL: QTVVTQEPSLTVSPGGTVTLTCRSSTGAVTTSNCANWVQQKPGQAPRGLIGGTNKRAPGVPARFSGSLLGDKAALTLLGAQPEDEAEYFCALWYSNLWVFGGGTKLTVL
# modifications: Cys 34 conjugated with Molecule I (+20K)
# notes: also called VL-34 Y34 (+20K)
# B13: anti-CD3 antibody mutant VL-K55C conjugated with Molecule I (+20K) (antibody, V domains shown)
# VH: EVQLVESGGGLVQPGGSLRLSCAASGFTFSTYAMNWVRQAPGKGLEWVGRIRSKYNNYATYYADSVKDRFTISRDDSKNSLYLQMNSLKTEDTAVYYCARHGNFGNSYVSWFAYWGQGTLVTVSS
# VL: QTVVTQEPSLTVSPGGTVTLTCRSSTGAVTTSNYANWVQQKPGQAPRGLIGGTNCRAPGVPARFSGSLLGDKAALTLLGAQPEDEAEYFCALWYSNLWVFGGGTKLTVL
# modifications: Cys 55 conjugated with Molecule I (+20K)
# notes: also called VL-55 K55 (+20K)
# B14: anti-CD3 antibody mutant VH-W111C conjugated with Molecule I (+20K) (antibody, V domains shown)
# VH: EVQLVESGGGLVQPGGSLRLSCAASGFTFSTYAMNWVRQAPGKGLEWVGRIRSKYNNYATYYADSVKDRFTISRDDSKNSLYLQMNSLKTEDTAVYYCARHGNFGNSYVSCFAYWGQGTLVTVSS
# VL: QTVVTQEPSLTVSPGGTVTLTCRSSTGAVTTSNYANWVQQKPGQAPRGLIGGTNKRAPGVPARFSGSLLGDKAALTLLGAQPEDEAEYFCALWYSNLWVFGGGTKLTVL
# modifications: Cys 111 conjugated with Molecule I (+20K)
# notes: also called VH-111 W111 (+20K)
# B15: anti-CD3 antibody mutant VL-N54C conjugated with Molecule I (+20K) (antibody, V domains shown)
# VH: EVQLVESGGGLVQPGGSLRLSCAASGFTFSTYAMNWVRQAPGKGLEWVGRIRSKYNNYATYYADSVKDRFTISRDDSKNSLYLQMNSLKTEDTAVYYCARHGNFGNSYVSWFAYWGQGTLVTVSS
# VL: QTVVTQEPSLTVSPGGTVTLTCRSSTGAVTTSNYANWVQQKPGQAPRGLIGGTCKRAPGVPARFSGSLLGDKAALTLLGAQPEDEAEYFCALWYSNLWVFGGGTKLTVL
# modifications: Cys 54 conjugated with Molecule I (+20K)
# notes: also called VL-54 N54 (+20K)
# B16: anti-CD3 antibody mutant VL-W93C conjugated with Molecule I (+20K) (antibody, V domains shown)
# VH: EVQLVESGGGLVQPGGSLRLSCAASGFTFSTYAMNWVRQAPGKGLEWVGRIRSKYNNYATYYADSVKDRFTISRDDSKNSLYLQMNSLKTEDTAVYYCARHGNFGNSYVSWFAYWGQGTLVTVSS
# VL: QTVVTQEPSLTVSPGGTVTLTCRSSTGAVTTSNYANWVQQKPGQAPRGLIGGTNKRAPGVPARFSGSLLGDKAALTLLGAQPEDEAEYFCALCYSNLWVFGGGTKLTVL
# modifications: Cys 93 conjugated with Molecule I (+20K)
# notes: also called VL-93 W93 (+20K)
# B17: anti-CD3 antibody mutant VL-R56C conjugated with Molecule I (+20K) (antibody, V domains shown)
# VH: EVQLVESGGGLVQPGGSLRLSCAASGFTFSTYAMNWVRQAPGKGLEWVGRIRSKYNNYATYYADSVKDRFTISRDDSKNSLYLQMNSLKTEDTAVYYCARHGNFGNSYVSWFAYWGQGTLVTVSS
# VL: QTVVTQEPSLTVSPGGTVTLTCRSSTGAVTTSNYANWVQQKPGQAPRGLIGGTNKCAPGVPARFSGSLLGDKAALTLLGAQPEDEAEYFCALWYSNLWVFGGGTKLTVL
# modifications: Cys 56 conjugated with Molecule I (+20K)
# notes: also called VL-56 R56 (+20K)
# B18: anti-CD3 antibody mutant VL-N96C conjugated with Molecule I (+20K) (antibody, V domains shown)
# VH: EVQLVESGGGLVQPGGSLRLSCAASGFTFSTYAMNWVRQAPGKGLEWVGRIRSKYNNYATYYADSVKDRFTISRDDSKNSLYLQMNSLKTEDTAVYYCARHGNFGNSYVSWFAYWGQGTLVTVSS
# VL: QTVVTQEPSLTVSPGGTVTLTCRSSTGAVTTSNYANWVQQKPGQAPRGLIGGTNKRAPGVPARFSGSLLGDKAALTLLGAQPEDEAEYFCALWYSCLWVFGGGTKLTVL
# modifications: Cys 96 conjugated with Molecule I (+20K)
# notes: also called VL-96 N96 (+20K)
# Molecular target: T1, CD3 (antigen of the anti-CD3 antibody, coated in the ELISA of Examples 1-3) (Homo sapiens (Human), UniProt P07766 23-126)
# T1 construct: also called antibody antigen
# Experiment: binding activity after activation of the conjugate; method not described
# T1 sequence (P07766 23-126 limits assumed, form in doubt): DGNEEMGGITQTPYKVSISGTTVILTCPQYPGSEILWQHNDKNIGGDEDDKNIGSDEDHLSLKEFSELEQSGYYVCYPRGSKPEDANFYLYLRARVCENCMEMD
row,Binder,Recovery of binding force after activation (%)
1,B1,100
2,B2,100
3,B3,100
4,B4,100

# Molecular target: T1, CD3 (antigen of the anti-CD3 antibody, …)
# Experiment: binding activity after conjugation with different R1; method not described (presumably ELISA)
row,Binder,Blocking fold after conjugation [fold]
1,B5,20
2,B6,500
3,B7,10
4,B8,400

# Molecular target: T1, CD3 (antigen of the anti-CD3 antibody, …)
# Experiment: binding activity of the conjugated mutant compared with the wild-type antibody (ELISA as in Example 1)
# Description: In the present invention, the activity of each mutant with a point mutation compared to that of its initial antibody is detected by ELISA. Specifically, the 96-well plates were coated with antibody antigen overnight, then blocked with 1% BSA blocking agent (Thermo Fisher) at 37° C. for 2 hours, and washed with PBST for 3 times. The corresponding antibody or the corresponding mutant was added for binding at 37° C. for 1 hour, and then washed with PBST for 3 times. HRP enzyme-linked anti-human IgG was added for binding at 37° C. for 1 hour, and washed with PBST for 3 times. TMB substrate (Solarbio., Inc.) was used to detect absorbance at 450 nm. The effect on mutant binding strength was calculated through EC50 mutation/EC50 wild-type.
row,Binder,Blocking fold after conjugation (+20K) [fold]
1,B9,3
2,B10,400
3,B11,30
4,B12,8
5,B13,5
6,B14,6
7,B15,12
8,B16,5
9,B17,6
10,B18,2
